The results in this text go back to publication PMC4144708 (Biochemistry, 2014).

Substrate in data set [1]: [H][C@@]12COP(=O)(O)O[C@@]1([H])[C@@H](O)[C@H](n1cnc3c(=O)[nH]c(N)nc31)O2
In words: [3H]cGMP hydrolysis, scintillation counting, Michaelis-Menten fit. The note with it: 50 mM Tris-HCl pH 7.5, room temperature, no added ion, labelled compound. It is filed as biochemical, Saccharomyces cerevisiae.

Data set [2] concerns the molecule itself. In words: SEC. Background: In gel filtration, larger molecules generally elute earlier.

B1: yeast phosphodiesterase-1 (yPDE1), full length (residues 1-369) (enzyme, Saccharomyces cerevisiae, UniProt P22434 1-369, looked up)
chain: MVVFEITILGANGGPTEYGTQCFILKPARTEDPELIAVDGGAGMYQLREMLVQGRNENEGDDELVPSFYEHDREPIEFFIDSKLNIQKGLSKSLLQSLKRQGEHFESANTMKKTYEVFQGITDYYITHPHLDHISGLVVNSPSIYEQENSKKKTIWGLPHTIDVLQKHVFNDLIWPDLTAERSRKLKLKCLNPKEVQKCTIFPWDVIPFKVHHGIGVKTGAPVYSTFYIFRDRKSKDCIIVCGDVEQDRRESEESLLEEFWSYVAENIPLVHLKGILVECSCPLSSKPEQLYGHLSPIYLINELSNLNTLYNSSKGLSGLNVIVTHVKSTPAKRDPRLTILEELRFLAEERNLGDLRISIALEGHTLFL
In the case of B1, in data set [1], the Km was 104.7 ± 10.2 µM, the kcat stood at 11.8 ± 1 s⁻¹ and the kcat/Km is 113000 M⁻¹ s⁻¹. In data set [2], the “stoichiometry N” value came to 2.

As a reminder, the Km is the concentration of substrate that gives half-maximal velocity. Usually kcat stands for the number of substrate molecules converted per active site and unit of time at saturation. The kcat/Km is the turnover number divided by the Michaelis constant. In general, stoichiometry N refers to a count of units in the complex or per binding partner.
